T1: EsCas13d, nuclease-dead (Eubacterium siraeum, UniProt B0MS50, R295A;H300A;R849A;H854A)
T1 sequence: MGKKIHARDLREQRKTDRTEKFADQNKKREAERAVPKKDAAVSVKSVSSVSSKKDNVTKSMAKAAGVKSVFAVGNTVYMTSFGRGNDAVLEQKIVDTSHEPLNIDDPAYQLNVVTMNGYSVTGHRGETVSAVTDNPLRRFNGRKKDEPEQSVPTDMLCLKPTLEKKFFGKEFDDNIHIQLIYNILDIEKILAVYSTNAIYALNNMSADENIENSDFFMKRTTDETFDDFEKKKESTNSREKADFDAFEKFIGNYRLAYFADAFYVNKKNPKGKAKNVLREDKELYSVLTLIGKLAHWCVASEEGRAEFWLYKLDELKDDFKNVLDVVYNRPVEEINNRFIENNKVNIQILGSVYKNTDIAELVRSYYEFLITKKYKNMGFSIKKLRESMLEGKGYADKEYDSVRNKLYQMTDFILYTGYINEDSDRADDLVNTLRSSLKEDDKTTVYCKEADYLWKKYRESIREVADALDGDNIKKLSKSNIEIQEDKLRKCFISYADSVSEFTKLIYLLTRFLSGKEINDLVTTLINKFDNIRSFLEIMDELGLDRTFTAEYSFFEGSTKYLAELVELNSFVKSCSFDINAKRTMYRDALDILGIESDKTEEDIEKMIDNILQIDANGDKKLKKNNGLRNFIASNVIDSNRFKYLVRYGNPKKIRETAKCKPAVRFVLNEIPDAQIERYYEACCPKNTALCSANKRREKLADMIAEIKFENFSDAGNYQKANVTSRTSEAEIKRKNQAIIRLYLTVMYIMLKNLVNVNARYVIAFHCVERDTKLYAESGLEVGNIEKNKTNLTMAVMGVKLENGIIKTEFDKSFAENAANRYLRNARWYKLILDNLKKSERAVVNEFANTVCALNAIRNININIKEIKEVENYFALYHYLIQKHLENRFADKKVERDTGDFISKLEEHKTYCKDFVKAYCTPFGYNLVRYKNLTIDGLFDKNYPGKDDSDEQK


Biological target: T1, EsCas13d, nuclease-dead
Assay: crRNA (strand 1, pre-loaded); Mg2+; 40 mM Tris-HCl pH 7.5, 150 mM NaCl, 6 mM MgCl2, 1 mM DTT, 0.1% Tween-20, 0.2 mg/ml BSA; 25 C; 10 min per concentration, then washed
Conditions: tags: His6-TwinStrep-SUMO cleaved; N-terminal SNAP kept (SNAP-Surface 488); label: 3' end held by stalled T7 RNA polymerase

Row | Binder | Kd [nM]
1 | target 1 G15A,A16C (mixed) RNA 1: CACCCGUGCAAAAAUGCAGGGGUCUAAAACUGAGCGGAUAACCUCUCUAUGG RNA 2: GGGAAUGGAUCCACAUCUACGAAUUCGUACCAUAGCAAGGUUAUCCGCUCACCGAGAUCGGAAGAGCACACGU | 30.5 ± 2.7
2 | target 1 insA 3' of 17,insG 3' of 14 (mixed) RNA 1: CACCCGUGCAAAAAUGCAGGGGUCUAAAACUGAGCGGAUAACCUCUCUAUGG RNA 2: GGGAAUGGAUCCACAUCUACGAAUUCGUACCAUAGAAGAGGGUUAUCCGCUCACCGAGAUCGGAAGAGCACACGU | 15.5 ± 0.7
3 | target 1 U8C,G12C (mixed) RNA 1: CACCCGUGCAAAAAUGCAGGGGUCUAAAACUGAGCGGAUAACCUCUCUAUGG RNA 2: GGGAAUGGAUCCACAUCUACGAAUUCGUACCAUAGAGAGCUUACCCGCUCACCGAGAUCGGAAGAGCACACGU | 18.1 ± 0.6
4 | target 1 G13C,G15C (mixed) RNA 1: CACCCGUGCAAAAAUGCAGGGGUCUAAAACUGAGCGGAUAACCUCUCUAUGG RNA 2: GGGAAUGGAUCCACAUCUACGAAUUCGUACCAUAGACACGUUAUCCGCUCACCGAGAUCGGAAGAGCACACGU | 52 ± 22
5 | target 1 insC 3' of 19,insC 3' of 9 (mixed) RNA 1: CACCCGUGCAAAAAUGCAGGGGUCUAAAACUGAGCGGAUAACCUCUCUAUGG RNA 2: GGGAAUGGAUCCACAUCUACGAAUUCGUACCAUCAGAGAGGUUACUCCGCUCACCGAGAUCGGAAGAGCACACGU | 56 ± 11
6 | target 1 insA 3' of 11,insA 3' of 5 (mixed) RNA 1: CACCCGUGCAAAAAUGCAGGGGUCUAAAACUGAGCGGAUAACCUCUCUAUGG RNA 2: GGGAAUGGAUCCACAUCUACGAAUUCGUACCAUAGAGAGGUAUAUCCGACUCACCGAGAUCGGAAGAGCACACGU | 8.7 ± 0.4
7 | target 1 insA 3' of 22,insA 3' of 4 (mixed) RNA 1: CACCCGUGCAAAAAUGCAGGGGUCUAAAACUGAGCGGAUAACCUCUCUAUGG RNA 2: GGGAAUGGAUCCACAUCUACGAAUUCGUACACAUAGAGAGGUUAUCCGCAUCACCGAGAUCGGAAGAGCACACGU | 7.8 ± 1.1
8 | target 1 U10G,G15A (mixed) RNA 1: CACCCGUGCAAAAAUGCAGGGGUCUAAAACUGAGCGGAUAACCUCUCUAUGG RNA 2: GGGAAUGGAUCCACAUCUACGAAUUCGUACCAUAGAAAGGUGAUCCGCUCACCGAGAUCGGAAGAGCACACGU | 53 ± 15
9 | target 1 U8A,A16G (mixed) RNA 1: CACCCGUGCAAAAAUGCAGGGGUCUAAAACUGAGCGGAUAACCUCUCUAUGG RNA 2: GGGAAUGGAUCCACAUCUACGAAUUCGUACCAUAGGGAGGUUAACCGCUCACCGAGAUCGGAAGAGCACACGU | 64 ± 6
10 | target 1 C7G,G12C (mixed) RNA 1: CACCCGUGCAAAAAUGCAGGGGUCUAAAACUGAGCGGAUAACCUCUCUAUGG RNA 2: GGGAAUGGAUCCACAUCUACGAAUUCGUACCAUAGAGAGCUUAUGCGCUCACCGAGAUCGGAAGAGCACACGU | 23.6 ± 1.4
11 | target 1 insA 3' of 10,insC 3' of 3 (mixed) RNA 1: CACCCGUGCAAAAAUGCAGGGGUCUAAAACUGAGCGGAUAACCUCUCUAUGG RNA 2: GGGAAUGGAUCCACAUCUACGAAUUCGUACCAUAGAGAGGUUAAUCCGCUCCACCGAGAUCGGAAGAGCACACGU | 10.3 ± 0.6
12 | target 1 insC 3' of 22,insA 3' of 19 (mixed) RNA 1: CACCCGUGCAAAAAUGCAGGGGUCUAAAACUGAGCGGAUAACCUCUCUAUGG RNA 2: GGGAAUGGAUCCACAUCUACGAAUUCGUACCCAUAAGAGAGGUUAUCCGCUCACCGAGAUCGGAAGAGCACACGU | 30 ± 9
13 | target 1 insU 3' of 4 (mixed) RNA 1: CACCCGUGCAAAAAUGCAGGGGUCUAAAACUGAGCGGAUAACCUCUCUAUGG RNA 2: GGGAAUGGAUCCACAUCUACGAAUUCGUACCAUAGAGAGGUUAUCCGCUUCACCGAGAUCGGAAGAGCACACGU | 8.7 ± 0.7
14 | target 1 C6A,G13U (mixed) RNA 1: CACCCGUGCAAAAAUGCAGGGGUCUAAAACUGAGCGGAUAACCUCUCUAUGG RNA 2: GGGAAUGGAUCCACAUCUACGAAUUCGUACCAUAGAGAUGUUAUCAGCUCACCGAGAUCGGAAGAGCACACGU | 34 ± 4
15 | target 1 insC 3' of 22,insG 3' of 8 (mixed) RNA 1: CACCCGUGCAAAAAUGCAGGGGUCUAAAACUGAGCGGAUAACCUCUCUAUGG RNA 2: GGGAAUGGAUCCACAUCUACGAAUUCGUACCCAUAGAGAGGUUAUGCCGCUCACCGAGAUCGGAAGAGCACACGU | 33 ± 4
16 | target 1 insU 3' of 14,insG 3' of 11 (mixed) RNA 1: CACCCGUGCAAAAAUGCAGGGGUCUAAAACUGAGCGGAUAACCUCUCUAUGG RNA 2: GGGAAUGGAUCCACAUCUACGAAUUCGUACCAUAGAGAUGGUGUAUCCGCUCACCGAGAUCGGAAGAGCACACGU | 80 ± 40
17 | target 1 A1U,A9C (mixed) RNA 1: CACCCGUGCAAAAAUGCAGGGGUCUAAAACUGAGCGGAUAACCUCUCUAUGG RNA 2: GGGAAUGGAUCCACAUCUACGAAUUCGUACCAUAGAGAGGUUCUCCGCUCUCCGAGAUCGGAAGAGCACACGU | 15.4 ± 1.7
18 | target 1 insU 3' of 22,insC 3' of 5 (mixed) RNA 1: CACCCGUGCAAAAAUGCAGGGGUCUAAAACUGAGCGGAUAACCUCUCUAUGG RNA 2: GGGAAUGGAUCCACAUCUACGAAUUCGUACUCAUAGAGAGGUUAUCCGCCUCACCGAGAUCGGAAGAGCACACGU | 100 ± 50
19 | target 1 insU 3' of 9,insU 3' of 1 (mixed) RNA 1: CACCCGUGCAAAAAUGCAGGGGUCUAAAACUGAGCGGAUAACCUCUCUAUGG RNA 2: GGGAAUGGAUCCACAUCUACGAAUUCGUACCAUAGAGAGGUUAUUCCGCUCAUCCGAGAUCGGAAGAGCACACGU | 32 ± 7
20 | target 1 C7G,C21U (mixed) RNA 1: CACCCGUGCAAAAAUGCAGGGGUCUAAAACUGAGCGGAUAACCUCUCUAUGG RNA 2: GGGAAUGGAUCCACAUCUACGAAUUCGUACUAUAGAGAGGUUAUGCGCUCACCGAGAUCGGAAGAGCACACGU | 6.7 ± 0.31
21 | target 1 insA 3' of 7,insG 3' of 4 (mixed) RNA 1: CACCCGUGCAAAAAUGCAGGGGUCUAAAACUGAGCGGAUAACCUCUCUAUGG RNA 2: GGGAAUGGAUCCACAUCUACGAAUUCGUACCAUAGAGAGGUUAUCACGCGUCACCGAGAUCGGAAGAGCACACGU | 5.33 ± 0.17
22 | target 1 insG 3' of 18,insG 3' of 9 (mixed) RNA 1: CACCCGUGCAAAAAUGCAGGGGUCUAAAACUGAGCGGAUAACCUCUCUAUGG RNA 2: GGGAAUGGAUCCACAUCUACGAAUUCGUACCAUAGGAGAGGUUAGUCCGCUCACCGAGAUCGGAAGAGCACACGU | 49 ± 8
23 | target 1 insG 3' of 11,insG 3' of 2 (mixed) RNA 1: CACCCGUGCAAAAAUGCAGGGGUCUAAAACUGAGCGGAUAACCUCUCUAUGG RNA 2: GGGAAUGGAUCCACAUCUACGAAUUCGUACCAUAGAGAGGUGUAUCCGCUCGACCGAGAUCGGAAGAGCACACGU | 57 ± 8
24 | target 1 A9U,G15A (mixed) RNA 1: CACCCGUGCAAAAAUGCAGGGGUCUAAAACUGAGCGGAUAACCUCUCUAUGG RNA 2: GGGAAUGGAUCCACAUCUACGAAUUCGUACCAUAGAAAGGUUUUCCGCUCACCGAGAUCGGAAGAGCACACGU | 19.1 ± 1.4
25 | target 1 U10A,C21A (mixed) RNA 1: CACCCGUGCAAAAAUGCAGGGGUCUAAAACUGAGCGGAUAACCUCUCUAUGG RNA 2: GGGAAUGGAUCCACAUCUACGAAUUCGUACAAUAGAGAGGUAAUCCGCUCACCGAGAUCGGAAGAGCACACGU | 33 ± 5
26 | target 1 insG 3' of 14,insU 3' of 13 (mixed) RNA 1: CACCCGUGCAAAAAUGCAGGGGUCUAAAACUGAGCGGAUAACCUCUCUAUGG RNA 2: GGGAAUGGAUCCACAUCUACGAAUUCGUACCAUAGAGAGGUGUUAUCCGCUCACCGAGAUCGGAAGAGCACACGU | 22.8 ± 2.7
27 | target 1 U8A,G17U (mixed) RNA 1: CACCCGUGCAAAAAUGCAGGGGUCUAAAACUGAGCGGAUAACCUCUCUAUGG RNA 2: GGGAAUGGAUCCACAUCUACGAAUUCGUACCAUAUAGAGGUUAACCGCUCACCGAGAUCGGAAGAGCACACGU | 61 ± 8
28 | target 1 G12A,A20U (mixed) RNA 1: CACCCGUGCAAAAAUGCAGGGGUCUAAAACUGAGCGGAUAACCUCUCUAUGG RNA 2: GGGAAUGGAUCCACAUCUACGAAUUCGUACCUUAGAGAGAUUAUCCGCUCACCGAGAUCGGAAGAGCACACGU | 15.7 ± 0.9
